Laboratory results reported in publication PMC11735809, “Structural basis of Spliced Leader RNA recognition by the Trypanosoma brucei cap-binding complex” (Nature Communications, 2025).

Legend:
[1] = tested on: TbCBP66* R348E (Trypanosoma brucei); experiment: fluorescence polarization; conditions: EMSA: 20 mM HEPES pH 7.5, 50 mM NaCl, 5 mM MgCl2, Tween (0.05% in RNA buffer), RNA stock 50 nM mixed 1:1, 30 min on ice, 6% native PAGE 4 C; FP: same buffer, 0.
[2] = biological target: T1, TbCBC-tetramer (TbCBP20-TbCBP110-TbCBP30-TbCBP66) (Trypanosoma brucei, UniProt Q585L4); experiment: competition pull-down on immobilised γ-aminophenyl-m7GTP resin, SDS-PAGE; type: binding; conditions: pH 7.5, 200 mM NaCl, 5 mM MgCl2, 4 °C; competitive at the cap site
T1 construct: gene Tb06.28P18.1190; full-length subunits co-expressed in Hi5 insect cells (biGBac), HisTrap and heparin purified, tetramer 230 kDa
T1 sequence (Q585L4 1-187): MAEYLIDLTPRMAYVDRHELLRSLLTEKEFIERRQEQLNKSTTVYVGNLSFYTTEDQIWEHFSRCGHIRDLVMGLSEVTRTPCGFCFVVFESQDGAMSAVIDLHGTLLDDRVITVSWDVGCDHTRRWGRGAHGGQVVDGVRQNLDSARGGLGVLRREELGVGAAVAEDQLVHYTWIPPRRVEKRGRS
T1 sequence (Q38BU6 1-1004 partner): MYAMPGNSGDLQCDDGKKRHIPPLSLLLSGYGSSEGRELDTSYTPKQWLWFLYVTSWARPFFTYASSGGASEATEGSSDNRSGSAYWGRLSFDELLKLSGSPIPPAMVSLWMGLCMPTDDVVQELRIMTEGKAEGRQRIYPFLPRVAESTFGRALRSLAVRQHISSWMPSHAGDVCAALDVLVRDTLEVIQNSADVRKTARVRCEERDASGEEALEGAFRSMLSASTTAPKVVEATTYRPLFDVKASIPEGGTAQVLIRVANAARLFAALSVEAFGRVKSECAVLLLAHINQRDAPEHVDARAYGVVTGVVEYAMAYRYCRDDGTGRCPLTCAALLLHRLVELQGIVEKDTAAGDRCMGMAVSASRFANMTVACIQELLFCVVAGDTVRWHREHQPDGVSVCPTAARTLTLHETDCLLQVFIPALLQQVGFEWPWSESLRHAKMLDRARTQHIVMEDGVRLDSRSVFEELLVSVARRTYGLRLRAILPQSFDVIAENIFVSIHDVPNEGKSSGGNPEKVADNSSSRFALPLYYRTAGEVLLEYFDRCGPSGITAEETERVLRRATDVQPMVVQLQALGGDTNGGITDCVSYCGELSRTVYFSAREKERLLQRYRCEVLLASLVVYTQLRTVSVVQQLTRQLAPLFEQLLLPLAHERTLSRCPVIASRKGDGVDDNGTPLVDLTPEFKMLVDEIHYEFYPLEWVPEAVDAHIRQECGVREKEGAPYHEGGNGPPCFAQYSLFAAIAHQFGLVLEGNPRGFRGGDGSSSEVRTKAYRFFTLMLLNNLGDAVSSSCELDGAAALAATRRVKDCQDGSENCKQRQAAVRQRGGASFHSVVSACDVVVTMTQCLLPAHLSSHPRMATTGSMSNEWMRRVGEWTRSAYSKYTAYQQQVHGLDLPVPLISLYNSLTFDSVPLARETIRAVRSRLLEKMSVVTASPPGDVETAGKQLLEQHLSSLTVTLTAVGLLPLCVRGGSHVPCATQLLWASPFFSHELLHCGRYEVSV
T1 sequence (Q387Z0 1-270 partner): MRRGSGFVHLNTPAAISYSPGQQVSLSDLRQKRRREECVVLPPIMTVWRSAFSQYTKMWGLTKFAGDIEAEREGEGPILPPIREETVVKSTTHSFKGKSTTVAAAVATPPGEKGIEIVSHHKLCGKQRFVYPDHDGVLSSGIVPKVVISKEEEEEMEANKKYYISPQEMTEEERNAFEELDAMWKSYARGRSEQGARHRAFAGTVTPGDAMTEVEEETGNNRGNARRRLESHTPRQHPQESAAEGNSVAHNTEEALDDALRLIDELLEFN

[3] = biological target: T1, TbCBC-tetramer (TbCBP20-TbCBP110-TbCBP30-TbCBP66); experiment: cryo-EM structure, […] Å; type: binding; conditions: 2-fold excess of ligand; m7GMP part resolved in the TbCBP20 cap pocket
[4] = biological target: TAMRA-labeled TbCBP30 peptide comprising residues R34-G60 (Trypanosoma brucei); experiment: MST; 50 nM N-terminally TAMRA-labeled peptide mixed 1:1 with a serial dilution of TbCBC-dimer; 20 mM HEPES, 250 mM NaCl, 5 mM MgCl, 0.1 % Tween in the peptide buffer; 30 min on ice; Monolith NT.115; binding quantified from the ligand-dependent increase in the initial fluorescence; n = 3
[5] = tested on: TbCBP66* (Trypanosoma brucei); experiment: EMSA; conditions: EMSA: 20 mM HEPES pH 7.5, 50 mM NaCl, 5 mM MgCl2, Tween (0.05% in RNA buffer), RNA stock 50 nM mixed 1:1, 30 min on ice, 6% native PAGE 4 C; FP: same buffer, 0.

Compound: AACUAACGCUAUUAUUAGAACAGUUUCUGUACUAUAUUG [OH-SLe 3'-6FAM (39 nt SL RNA exon, FP)]
- Kd [1]: 9.81 µM

Compound: C[n+]1cn([C@@H]2O[C@H](COP(=O)(O)OP(=O)(O)OP(=O)(O)O)[C@@H](O)[C@H]2O)c2nc(N)[nH]c(=O)c21 [m^7GTP]
- competition pull-down on immobilised γ-aminophenyl-m7GTP resin, SDS-PAGE [2]: m^7GTP competed efficiently with cap4-SL RNA binding to TbCBC

Compound: C[n+]1cn([C@@H]2O[C@H](COP(=O)(O)OP(=O)(O)OP(=O)(O)OC[C@H]3O[C@@H](n4cnc5c(N)ncnc54)[C@H](O)[C@@H]3O)[C@@H](O)[C@H]2O)c2nc(N)[nH]c(=O)c21 [m^7GpppA]
- cryo-EM structure, 2.4 Å [3]: The m^7GMP portion of the cap-analog is coordinated by TbCBP20

Compound: TbCBC-dimer (TbCBP20-TbCBP110 dimer) (complex)
- Kd [4]: 0.98 µM

Compound: AUUAGAACAGUUUCUGUACUAUAUUG [SL-hairpin_loop (A14-G39)]
- Kd [5]: 0.39 µM
